Target: T1, full-length recombinant human NF2, phosphorylated by PKAc (human, UniProt P35240 1-595, phosphoserine at S10 and S518 (phosphorylated by PKAc in vitro))
T1 sequence (looked up): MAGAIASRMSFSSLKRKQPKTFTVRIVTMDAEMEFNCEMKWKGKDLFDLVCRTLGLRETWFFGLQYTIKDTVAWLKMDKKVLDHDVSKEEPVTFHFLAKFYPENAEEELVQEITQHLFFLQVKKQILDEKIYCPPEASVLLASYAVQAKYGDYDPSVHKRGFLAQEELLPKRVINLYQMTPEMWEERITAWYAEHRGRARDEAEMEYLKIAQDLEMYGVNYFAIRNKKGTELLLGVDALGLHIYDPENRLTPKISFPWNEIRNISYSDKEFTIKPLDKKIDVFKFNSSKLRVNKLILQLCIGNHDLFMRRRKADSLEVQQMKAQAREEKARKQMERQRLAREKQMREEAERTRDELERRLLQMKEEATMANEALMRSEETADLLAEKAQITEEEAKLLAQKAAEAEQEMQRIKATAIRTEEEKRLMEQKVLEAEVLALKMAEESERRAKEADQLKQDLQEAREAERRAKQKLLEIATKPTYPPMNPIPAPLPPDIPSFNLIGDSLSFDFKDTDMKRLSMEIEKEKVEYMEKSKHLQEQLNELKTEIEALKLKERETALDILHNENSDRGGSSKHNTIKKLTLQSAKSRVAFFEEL
Test: cell-based or functional assay

B1: recombinant human PLPP/CIN (enzyme, UniProt Q96GD0 1-296, looked up)
chain: MARCERLRGAALRDVLGRAQGVLFDCDGVLWNGERAVPGAPELLERLARAGKAALFVSNNSRRARPELALRFARLGFGGLRAEQLFSSALCAARLLRQRLPGPPDAPGAVFVLGGEGLRAELRAAGLRLAGDPSAGDGAAPRVRAVLVGYDEHFSFAKLREACAHLRDPECLLVATDRDPWHPLSDGSRTPGTGSLAAAVETASGRQALVVGKPSPYMFECITENFSIDPARTLMVGDRLETDILFGHRCGMTTVLTLTGVSRLEEAQAYLAAGQHDLVPHYYVESIADLTEGLED
With B1 the “NF2-S10 phosphorylation (western blot) in the in vitro phosphatase assay with recombinant proteins, after PKAc” value was ~0.63 fold of vehicle level.

Source: article PMC7791067, “PLPP/CIN-mediated NF2-serine 10 dephosphorylation regulates F-actin stability and Mdm2 degradation in an activity-dependent manner” (Cell Death & Disease, 2021)
